# Measured values from a protein production outcome set (Wang et al. 2014).
# Assay: label from the status in PepcDB records
row,Sequence,protein production
1,MIFDTEPDAMTLAPDDKPQDRHFDWSGVPIDLGGMEPLEQIARLLCHALVAPAAALTITEGGRLRVLAARGISSSHVEQAMELCKQVPPAPNGVTELIEHATLAQIKLGDAAFPGLPARFIACVPVGAPQTGISGTLCVIDTRERRLASQEHQQLLMFANVAAAQLELQFGAGRREPHSGLLNTRQLQSDLDALAFGSHSVPTIAAFIEVYDTQAANEARQALGMQPLEELVRHASYVLTRALRGKATVYHVASMRFAFFLLNSAPDEMEDLLLDLRDMLHKPVDAAGVPMSLTFHAGVVRFAPQQPDTNDVMRKGLVALGDAINNHAIVCWYSASHDDAIQRSYRLALDAEQALDAGDFRLVFQPRIDLEDLSVTGFEALLRWNHASMGPIGPDEFIPLFEKTALMCTVTNWVIESALVQLAKWRAQGLDFSMSINLSSRDFGNINLAADVINRCKDLAIPTTCIELEITEGRWLRSNVEAVPRLRALRDAGVSVAIDDFGTGYSNFGYLTELPVNVLKLDRSLVTGIATKTGMQMRAEAVVRLANALGYRTVAEGIEHADEIALLRSWGCDEAQGYLLAKPMEAHLVADYVKQTAALRRLP,failed
2,MSYQTWWSRVQVVDPEQLLDAVEEWDRPLVALTTPGTLARGLSLQVFRRIAPDEKNLLIIPHFCISGTIEKRLLEEGCCDENKITNENESIRIRCKTMNLHFGFHADTRDLLLFFSQWKPSCIVLVHGEGEKMDYLARVVQEEWGIQCWVPKEEQWITWKPNLTKSQ,failed
3,MRNKKLIPFEVIEKAVAGEPEAIELVLQHYSPRIKYLSKYRGYINDDIQDRLKTQLIKAILQFRFDR,failed
4,MKLLIISDGHGDLEKLKKIKPVADGVDALIFGGDFAAFKKIETGAPFLNELLKIHKNIFAVLGNCDEPEFEKKLKDASVSITGEVKNFEGLIFAGSGGGSKFTGTTPYERTDEELVKDLTDAFEKANITAAGNLVLVCHNPPHGAKVDKVAPMVHVGSKGITAFIEKHKPLLVVSGHIHESFAVDKIGETVLVNPGALMEGRYALAEITKNEKGFKVSVELKTLD,failed
5,MSGGRAQKPRPAPLRLAKPRPSSVGPAPRGSPGARRPAMSARHAPLLAGRVRSRAPRRFPDRGGGRRRQSSPVRAMSSPAVARASPGGNREASGGPRSRNGPWEVGGGGERLERAGAESGRWELLLRRGELLALGGHLKGALEAFAAALRRGAPARPERLGSLVDCLVFSYRLRHGLRWSAAPAAGAAGLLSCLSCRGFLSEPVTVPCGHSYCRRCLRRELRARCRLCRDRLPPAAAASEGTPRPPPLAAAIADFRTSVVLNHLAEKWFPGQRERARAAGRLGELLHEGRYREALAAACDALRAEPSDLTLKIYRAESYAGLQEFKAALEDLNAVLFQLPNWPEVYFRKGKVLQDAGFLGDALQLFLQCLALDEDFAPAKLQVEKILCDLLSPENVREGLKESSWSSLPCIKSKPLGFPSVMEQPHSPAELGLKQPEERVEDAPEPVKGSLSRAQSAQAISAAAVPAREDGLKRVCSEPLLSAQGKGVLLKRKLSLLEQDVLINEDGRSKLKKQSESPSEDCMFSIAYGDIPEELIDVSDFECSLCMRLFFEPVTTPCGHSFCKNCLERCLDHAPYCPLCKESLKEYLADRRYCVTQLLEELIVKYLPDELSERKKIYDEETAELSHLTKNVPIFVCTMAYPTVPCPLHVFEPRYRLMIRRSIQTGTKQFGMCVSDTQNSFADYGCMLQIRNVHFLPDGRSVVDTVGGKRFRVLKRGMKDGYCTADIEYLEDVKIENGDEIRSLRELHDSVYSQACSWFQNLRDRFRSQILQHFGSMPEREENLQATPNGPAWCWWLLAVLPVDPRYQLSVLSMKSLEERLTKIQHILTYFSRDQSK,failed
6,MAADKLADEVACMANTPGGGALIVGIEDKTGRIIGTELDIDWLRQGIFTRIDVAPDVVAKRVLGQRVLAIYVAAAAEPIEDTSDRLRWRVGDSCRPVDLEHHHHHH,failed
7,MTQTTPQPDPSRLRDELVRLHGKASPEWDSLVRLDPRFVDAYLKFAGVPQRRNHLDDKTRAFIALAADACATQLYAPGVARHIERALSFGATREELIEVLELVSTIGIHTSNVGVPVLLEVLEEEGLRKGAPPLDERRQKLKAEFETNRGYWHPTWEGLLELDPDLFEAYVEFSSVPWRTGVLSPKIKEFMYCAFDASATHLYVPGLKLHIRNALRYGATAEELMELLEIVSVTGIHGAELGAPLLEAALKRSGAAAGEPHA,not failed
8,MVIGVPKEIKTLENRVALTPGGVESLVRRGHTVLVERGAGEGSGLSDAEYARAGAELVGREEAWGAEMVVKVKEPLPEEYGFLREGLILFTYLHLAADRGLTEAMLRSGVTGIAYETVQLPDGTLPLLVPMSEVAGRMAPQVGAQFLEKPKGGRGVLLGGVPGVAPASVVILGGGTVGTNAAKIALGMGAQVTILDVNHKRLQYLDDVFGGRVITLTATEANIKKSVQHADLLIGAVLVPGAKAPKLVTRDMLSLMKEGAVIVDVAVDQGGCVETIRPTTHAEPTYVVDGVVHYGVANMPGAVPRTSTFALTNQTLPYVLKLAEKGLDALLEDAALLKGLNTHKGRLTHPGVAEAFGLPYTPPEEALRG,not failed
9,MLKPLVLSDSSPVRPRDLTLLDQEEAGLVSTFINRPPIDIFKILPSKDDPDWPSFQQILSKFPDTEHLCPDGGLVNNSFILDIVLPQKWIDHRVCNPRFFQSIVSTTCYFMGFVFYADLNLGFMHFSPFHIAII,failed
10,MTEARKIPKPSFPYGSPGELNSFLPYLLTRITHIWSSELNQALASEKLPTPKLRLLSSLSAYGELTVGQLATLGVMEQSTTSRTVDQLVDEGLAARSISDADQRKRTVVLTRKGKKKLAEISPLINDFHAELVGNVDPDKLQTCIEVLGEILKGKTDY,not failed
11,MNAYLSMNSDWRASMTQTVLVLGASGRFGRNAAEAFGRAGWTVRQFDRKRDDLDAAARGADVIVNAWNPPYPDWAATVPGLHARVIKTAQATGATVIIPGNVYVFGADTPAPWGPDSPHAATNPLGRIRIDMEAAYRASGVRTILLRAGDFLDTCASGNWFDQVMIKRLDKGRFTYPGNPDIPHAWAYLPDLARATVTLSERRETLPVFCDLTYPGYTMTGRQIATGLEQVTGRRVALKRMNWLPLHLARPVWSLAGSLLEMRYLWNTPHSLDGAAFAKVLPEFVQTPFEQALASAIPARLLAAQVHPDQAVAAGL,failed
12,MFLDRERELQFLERRYEMGGPEFIVIYGRRRVGKTALLLEFISRHGGIYLLARETSNLENLKRFSDRLSEYFGDDFLKRNPFQNWDAFLEYLNQKATERLVVVIDEFPYLVKGDRSLPSILQEYWDLKLSNGRIFLIICGSSISMMEKLLGYKSPIYGRRTGQINLKPVDFLHAREFLPGYSLEDFIKAYGILGGSPAHLLEFDDSKTIKENLLEYLRSDSLLYQDAFFVLREELEEPRNYFAIMEAVAAGKTSLGEIMNETGLSRATVAKYLSVLIELDFVKREIPITASRKSRRGRYYIKDNYFAFWFRYIHPNIDFIESERRKELLELIIDDLPNYLGGIFENVAIEFLPLISNKLPFKPLKIGRWWHKNEEIDLVAFNEKEEKAILIEVKWKTLNKIEANKILKDLNRKSKILKMKEWEQYHGIIAKRVKDKEKIKGGLIWDLEDIENLKFSPELEHHHHHH,not failed
13,MQTLNVLDNRFSPFNTYSTLSTDALVAETFTNTIFDKRQILALMTQLQTTLDIDELLSIFAVEATRYVDFSGLYFKSQNLNTVLFGSRKAKKEQCFELKIEDNFIGTLSYGINSPISLTNFKVLEQLHLCLLHPIKNAIAYHTAMQLAMQDGLTGLGNRRYFDEQLKRSMHNANRHHSLVGLVLGDLNKFKAINDTHGHIAGDTVLQEFANVLRLCTRDSDSLFRFGGDEFAIIVENANDTALAIIENRINLALASNVQLNKYQLGCSIGSTFMNRADNELSFFERADEILYRRKMQVSSHLSVV,failed
14,MRFKISLTTRLSLIFSAVMLTVWWLSSFILISTLNDYFDNQDRDFLTGKLQLTEEFLKTETFRNKTDIKSLSEKINDAMVGHNGLFISIKNMENEKIVELYAKNSVVPAVLLNKSGDILDYMIQTEENNTVYRSISRRVAVTPEQGKSKHVIITVATDTGYHTLLMDKLSTWLFWFNIGLVFISVFLGWLTTRIGLKPLREMTSLASSMTVHSLDQRLNPDLAPPEISETMQEFNNMFDRLEGAFRKLSDFSSDIAHELRTPVSNLMMQTQFALAKERDVSHYREILFANLEELKRLSRMTSDMLFLARSEHGLLRLDKHDVDLAAELNELRELFEPLADETGKTITVEGEGVVAGDSDMLRRAFSNLLSNAIKYSPDNTCTAIHLERDSDCVNVMITNTMSGQVPANLERLFDRFYRADSSRFYNTEGAGLGLSITRSIIHAHGGELSAEQQGREIVFKVRLLMD,failed
